PMC6513899, “The structural basis of translational control by eIF2 phosphorylation” (Nature Communications, 2019)

B1: eIF2Bβ (subunit of eIF2B) (natural protein, S. cerevisiae)
chain: MSSQAFTSVHPNAATSDVNVTIDTFVAKLKRRQVQGSYAIALETLQLLMRFISAARWNHVNDLIEQIRDLGNSLEKAHPTAFSCGNVIRRILAVLRDEVEEDTMSTTVTSTSVAEPLISSMFNLLQKPEQPHQNRKNSSGSSSMKTKTDYRQVAIQGIKDLIDEIKNIDEGIQQIAIDLIHDHEILLTPTPDSKTVLKFLITARERSNRTFTVLVTEGFPNNTKNAHEFAKKLAQHNIETLVVPDSAVFALMSRVGKVIIGTKAVFVNGGTISSNSGVSSVCECAREFRTPVFAVAGLYKLSPLYPFDVEKFVEFGGSQRILPRMDPRKRLDTVNQITDYVPPENIDIYITNVGGFNPSFIYRIAWDNYKQIDVHLDKNKA
notes: eIF2B beta subunit, S. cerevisiae; Stood in the assay as a subunit of the eIF2B decamer; also called eIF2B beta; source: S. cerevisiae strains GP5949 and GP7055, purified as part of Flag-eIF2B
B2: eIF2Bα (subunit of eIF2B) (natural protein, S. cerevisiae)
chain: MSEFNITETYLRFLEEDTEMTMPIAAIEALVTLLRIKTPETAAEMINTIKSSTEELIKSIPNSVSLRAGCDIFMRFVLRNLHLYGDWENCKQHLIENGQLFVSRAKKSRNKIAEIGVDFIADDDIILVHGYSRAVFSLLNHAANKFIRFRCVVTESRPSKQGNQLYTLLEQKGIPVTLIVDSAVGAVIDKVDKVFVGAEGVAESGGIINLVGTYSVGVLAHNARKPFYVVTESHKFVRMFPLSSDDLPMAGPPLDFTRRTDDLEDALRGPTIDYTAQEYITALITDLGVLTPSAVSEELIKMWYD
notes: eIF2B alpha subunit, S. cerevisiae; Stood in the assay as a subunit of the eIF2B decamer; also called eIF2B alpha; source: S. cerevisiae strains GP5949 and GP7055, purified as part of Flag-eIF2B

Tests used:
[1] = target: T1, eIF2Bδ (subunit of eIF2B) (S. cerevisiae, UniProt P12754 1-651); assay: cryo-EM structure; eIF2αP/eIF2B complex: six-fold molar excess of eIF2αP added to purified eIF2B (GP5949), fractionated on Superose 6 in 20 mM Tris-HCl, 100 mM KCl, 1 mM TCEP, pH 7.5; core map 3.9 Å, lateral densities 8-18 Å; half-particles classified by localised reconstruction; conditions: both partners purified
T1 construct: eIF2B delta subunit, S. cerevisiae; Stood in the assay as a subunit of the eIF2B decamer; also called eIF2B delta; source: S. cerevisiae strains GP5949 and GP7055, purified as part of Flag-eIF2B
T1 sequence: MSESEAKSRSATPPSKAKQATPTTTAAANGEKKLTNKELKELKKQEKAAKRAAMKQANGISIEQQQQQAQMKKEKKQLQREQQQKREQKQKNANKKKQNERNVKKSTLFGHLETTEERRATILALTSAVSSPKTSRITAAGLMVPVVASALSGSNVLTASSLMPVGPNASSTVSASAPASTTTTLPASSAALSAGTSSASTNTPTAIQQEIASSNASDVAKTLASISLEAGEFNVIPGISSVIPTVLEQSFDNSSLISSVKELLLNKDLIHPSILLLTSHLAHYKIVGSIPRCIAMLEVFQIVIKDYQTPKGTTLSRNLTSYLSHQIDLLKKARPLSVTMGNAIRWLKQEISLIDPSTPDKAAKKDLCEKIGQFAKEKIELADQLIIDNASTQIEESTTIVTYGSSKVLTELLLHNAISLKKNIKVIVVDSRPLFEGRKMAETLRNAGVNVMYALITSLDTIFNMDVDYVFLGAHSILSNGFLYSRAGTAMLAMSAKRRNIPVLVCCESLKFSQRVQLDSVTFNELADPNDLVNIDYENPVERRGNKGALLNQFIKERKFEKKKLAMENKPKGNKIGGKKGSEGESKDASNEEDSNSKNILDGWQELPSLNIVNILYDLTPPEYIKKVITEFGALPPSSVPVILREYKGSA

[2] = target: the molecule itself; assay: as above

Binder	binding result [1]	binding result [2]
B1	binds	–
B2	–	binds
